Literature values in publication PMC3784502.

Target: APC 15-aa repeat region (Homo sapiens) (UniProt P25054)
UniProt P25054, sequence (P25054 1020-1169): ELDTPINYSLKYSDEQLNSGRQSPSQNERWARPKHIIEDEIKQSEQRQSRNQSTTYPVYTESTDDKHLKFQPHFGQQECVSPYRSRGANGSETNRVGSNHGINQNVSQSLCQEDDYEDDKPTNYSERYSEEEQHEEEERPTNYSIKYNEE

Substance: β-catenin ARM repeats 5-9 (from UniProt P35222)
- Kd: 273 nM
